Reference: PMC11655674

biological target: T1, 6xHis-CerM (Cereibacter sphaeroides WS8N) (UniProt Q3J1N9); experiment: EMSA; conditions: 10 mM Tris pH 7.5, 1 mM EDTA, 0.1 M KCl, 0.1 mM DTT, 5% glycerol, 0.10 mg/mL BSA, 20 min room temperature; 50 ng DNA, 50-200 ng CerM; 4% native gel in TAE pH 7.
T1 sequence: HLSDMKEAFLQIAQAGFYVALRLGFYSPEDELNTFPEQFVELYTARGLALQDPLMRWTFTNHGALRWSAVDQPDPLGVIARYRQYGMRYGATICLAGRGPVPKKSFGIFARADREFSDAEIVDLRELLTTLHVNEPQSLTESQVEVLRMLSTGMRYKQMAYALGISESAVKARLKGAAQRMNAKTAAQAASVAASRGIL

Sequence	binding
CAAAAAGACAGGTTTGTTTCAAGACAAGTTTTTCTGGATGGAATTGGACGTCGGGCGGGGTTTTGGCACACAATATGCTTGTTATCCGGGCAGGGACAGCTGGAAGATTTACGGAGACATTTCATGAAACATCCCGTCGACGCCCAC (double strand) [14710 fragment F (147 bp)]	no binding
CAGCTTGTATGAATGGACATATCCAAAAAGACAGGTTTGTTTCAAGACAAGTTTTTCTGGATGGAATTGGACGTCGGGCGGGGTTTTGGCACACAATATGCTTGTTATCCGGGCAGGGACAGCTGGAAGATTTACGGAGACATTTCATGAAACATCCCGTCGACGCCCAC (double strand) [14710 fragment B (170 bp)]	binds
CCCGAATATTCGCGACTTGCAAAGTTTCGGCGGCGAATTCGCTGCAAATTGCATTGCAGAATGCAAAAGACCTCAGAGGCGAGTGACGTGTCTCCCGTGCTCCCGAGGGATGATCCACAGCGGCGGACGCCGAACGAACCCAGCTTGTATGAATGGACATATC (double strand) [14710 fragment G (163 bp)]	no binding
CCCGAATATTCGCGACTTGCAAAGTTTCGGCGGCGAATTCGCTGCAAATTGCATTGCAGAATGCAAAAGACCTCAGAGGCGAGTGACGTGTCTCCCGTGCTCCCGAGGGATGATCCACAGCGGCGGACGCCGAACGAACCCAGCTTGTATGAATGGACATATCCAAAAAGACAGGTTTGTTT (double strand) [14710 fragment I (182 bp)]	binds
CCCGAATATTCGCGACTTGCAAAGTTTCGGCGGCGAATTCGCTGCAAATTGCATTGCAGAATGCAAAAGACCTCAGAGGCGAGTGACGTGTCTCCCGTGCTCCCGAGGGATGATCCACAGCGGCGGACGCCGAACGAACCCAGCTTGTATGAATGGACATATCCAAAAAGACAGGTTTGTTTCAAGACAAG (double strand) [14710 fragment D (191 bp)]	binds
GACATATCCAAAAAGACAGGTTTGTTTCAAGACAAGTTTTTCTGGATGGAATTGGACGTCGGGCGGGGTTTTGGCACACAATATGCTTGTTATCCGGGCAGGGACAGCTGGAAGATTTACGGAGACATTTCATGAAACATCCCGTCGACGCCCAC (double strand) [14710 fragment H (155 bp)]	binds
GCGAATTCAAGGTCACGATGATCCAGAAATATCGGCAACTTTAGATTGTATTCAGCTTCGCCTATGCGAGAGTAACTCATGATTAACCATTGGGCATCATTGTAGTTAATACCTAGGGTGGCGATGCGGAGCGCGAGTGATGAGAATACTGCTGGTGGAGGATGATCCGACCACGTCCCGCAGCATCGAATTGATGCTGACTCATGCGAACCTGAACGTCTATTGCACCGATCTCGGCGAGGACGGGATCGATCTGGCCAAGCTCTACGATTACGATCTCATCCTGCTGAGCTCGC (double strand) [ctrA control region (281 bp)]	no binding
GCGAATTCCGAGAGGGTTCCACGCTTCATCTTCTCATTTCGCTGGGCAGCCGATTGCGGCGCGAGGAGACCGTGCTGCCGTCCCATTCTCAAGTTGCGCAAAAGGTAAGGCGCTGGAAGGCCCGTCTTTTGAGCATCTGGTCAAAAAAATAAGTTATTACATGGGCTTGATGGGTGATCGGCTCAATCCGCGGACAAACCCTGAGGTTGAGGTGAGAGAGACCCGACTCGCGCCCGTTACCGAAAATGTGCAGATGGGAATTCGC (double strand) [15394 regulatory region (249 bp)]	binds more weakly
GTGGGCGTCGACGGGATGTTTCATGAAATGTCTCCGTAAATCTTCCAGCTGTCCCTGCCCGGATAACAAGCATATTGTGTGCCAAAACCCCGCCCGACGTCCAATTCCATCCAGAAAAACTTGTCTTGA (double strand) [14710 fragment C (129 bp)]	no binding
